The target of experiment [1] is HER3 on cells (MCF7 cells; MDA-175 cells) (UniProt P21860 20-1342, limits assumed). Briefly: cell-based or functional assay.
The target of experiment [2] is T1, HER3-ECD-Fc (human, UniProt P21860 20-643, limits assumed).
T1 construct: extracellular domain; also called HER3-FC; HER3-IgG
As to the kind of experiment: direct phage ELISA, proteins coated at 2 µg/ml, phage-Fab supernatant, OD450. (In general: In an ELISA, binding on a coated surface is turned into a signal by an enzyme label.)

The target of the next experiment is T2, HER4-ECD-Fc (human, UniProt Q15303 26-651, limits assumed).
T2 construct: extracellular domain
T2 sequence (looked up): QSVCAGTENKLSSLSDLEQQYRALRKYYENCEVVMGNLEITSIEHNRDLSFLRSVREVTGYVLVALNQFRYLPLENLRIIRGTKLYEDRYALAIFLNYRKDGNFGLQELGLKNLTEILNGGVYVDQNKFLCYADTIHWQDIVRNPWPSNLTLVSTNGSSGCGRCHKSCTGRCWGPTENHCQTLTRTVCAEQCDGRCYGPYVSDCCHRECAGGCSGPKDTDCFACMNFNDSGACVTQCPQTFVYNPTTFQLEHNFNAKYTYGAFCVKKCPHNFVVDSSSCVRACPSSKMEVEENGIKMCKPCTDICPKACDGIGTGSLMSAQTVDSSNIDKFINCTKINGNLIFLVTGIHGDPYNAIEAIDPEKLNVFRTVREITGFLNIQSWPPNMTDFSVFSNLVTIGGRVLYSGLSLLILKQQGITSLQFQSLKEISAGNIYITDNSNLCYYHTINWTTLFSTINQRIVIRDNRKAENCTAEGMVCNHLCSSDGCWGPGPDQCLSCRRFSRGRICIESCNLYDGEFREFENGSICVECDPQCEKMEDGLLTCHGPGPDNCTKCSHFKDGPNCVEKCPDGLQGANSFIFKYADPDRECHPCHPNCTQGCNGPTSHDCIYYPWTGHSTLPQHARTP
The experiment is described as above.

Another experiment has as its target T3, hEGFR-ECD (human, UniProt P00533 25-645).
T3 construct: extracellular domain
Described as above.

A further experiment deals with T4, BSA (bovine, UniProt P02769).
T4 construct: also called bovine serum albumin
T4 sequence (P02769 25-607 limits assumed): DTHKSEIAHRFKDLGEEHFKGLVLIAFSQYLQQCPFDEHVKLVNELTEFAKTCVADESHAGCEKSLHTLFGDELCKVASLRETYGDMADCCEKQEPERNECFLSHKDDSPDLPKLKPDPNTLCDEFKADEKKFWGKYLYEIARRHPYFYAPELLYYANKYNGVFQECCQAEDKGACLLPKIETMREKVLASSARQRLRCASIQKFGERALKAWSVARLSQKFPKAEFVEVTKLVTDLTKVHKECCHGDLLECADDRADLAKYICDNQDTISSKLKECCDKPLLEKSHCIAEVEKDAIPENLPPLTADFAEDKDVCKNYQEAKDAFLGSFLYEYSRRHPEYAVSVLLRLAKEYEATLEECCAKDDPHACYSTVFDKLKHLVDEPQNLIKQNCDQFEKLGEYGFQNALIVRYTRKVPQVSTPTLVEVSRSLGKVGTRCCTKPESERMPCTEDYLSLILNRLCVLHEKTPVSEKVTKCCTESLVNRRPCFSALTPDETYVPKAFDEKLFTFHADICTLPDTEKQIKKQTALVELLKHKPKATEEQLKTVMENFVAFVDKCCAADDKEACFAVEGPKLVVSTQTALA
The experiment is described as above.

The target of the next experiment is T5, Erbitux.
T5 construct: also called cetuximab; C225; not shown: the constant regions
The experiment is described as above.

Another experiment has as its target T6, HER2-ECD (human, UniProt P04626 23-652).
T6 construct: extracellular domain
The experiment is described as above.

The target of experiment [3] is T1, HER3-ECD-Fc. Briefly: competition with 125I-HRG for HER3-ECD-Fc captured on anti-human antibody plates, antibody pre-bound, counts as % of control.

B1: DL11 (mIgG2A) (bispecific antibody, V domains shown)
VH: EVQLVESGGGLVQPGGSLRLSCAASGFTLSGDWIHWVRQAPGKGLEWLGEISAAGGYTDYADSVKGRFTISADTSKNTAYLQMNSLRAEDTAVYYCARESRVSFEAAMDYWGQGTLVTVSS
VL: DIQMTQSPSSLSASVGDRVTITCRASQDLATDVAWYQQKPGKAPKLLIYSASFLYSGVPSRFSGSGSGTDFTLTISSLQPEDFATYYCQQSEPEPYTFGQGTKVEIKR
Regarding B1, the “IC50 of inhibition of MDA-175 cell proliferation” value in experiment [1] lay within 0.8 to 1 µg/mL.

B2: D1.5-113 (phage-displayed Fab clone) (Fab, V domains shown)
VH: EVQLVESGGGLVQPGGSLRLSCAASGFTFTGNWIHWVRQAPGKGLEWVGEISPSGGYTDYADSVKGRFTISADTSKNTAYLQMNSLRAEDTAVYYCARESRVSYEAAMDYWGQGTLVTVSS
VL: DIQMTQSPSSLSASVGDRVTITCRASQSLLASHDGTPWVAWYQQKPGKAPKLLIYDASYLYSGVPSRFSGSGSGTDFTLTISSLQPEDFATYYCQQSTFAPYTFGQGTKVEIKR
notes: EGFR/HER3 clone
Take B2: the binding result with HER3-ECD-Fc [2] is listed as “binds”; with HER4-ECD-Fc, “no binding”; with hEGFR-ECD, “binds”; in the experiment with BSA, “no binding”; with Erbitux it was “no binding”; with HER2-ECD, “no binding”.

B3: D1.5-103 (phage-displayed Fab clone) (Fab, V domains shown)
VH: EVQLVESGGGLVQPGGSLRLSCAASGFTFTGNWIHWVRQAPGKGLEWVGEISPSGGYTDYADSVKGRFTISADTSKNTAYLQMNSLRAEDTAVYYCARESRVSYEAAMDYWGQGTLVTVSS
VL: DIQMTQSPSSLSASVGDRVTITCRASQALGDSENGYADVAWYQQKPGKAPKLLIYEGSSLYSGVPSRFSGSGSGTDFTLTISSLQPEDFATYYCQQAAPSPYTFGQGTKVEIKR
notes: EGFR/HER3 clone
Turning to B3, the binding result was “no binding” with HER4-ECD-Fc; “binds” with hEGFR-ECD; “no binding” with BSA; “no binding” with Erbitux; “no binding” with HER2-ECD.

B4: D1.5-113 (mIgG2A) (bispecific antibody, V domains shown)
VH: EVQLVESGGGLVQPGGSLRLSCAASGFTFTGNWIHWVRQAPGKGLEWVGEISPSGGYTDYADSVKGRFTISADTSKNTAYLQMNSLRAEDTAVYYCARESRVSYEAAMDYWGQGTLVTVSS
VL: DIQMTQSPSSLSASVGDRVTITCRASQSLLASHDGTPWVAWYQQKPGKAPKLLIYDASYLYSGVPSRFSGSGSGTDFTLTISSLQPEDFATYYCQQSTFAPYTFGQGTKVEIKR
Take B4: the binding result in the experiment with HER3-ECD-Fc [3] is reported as “binds”.

B5: D1.5-103 (mIgG2A) (bispecific antibody, V domains shown)
VH: EVQLVESGGGLVQPGGSLRLSCAASGFTFTGNWIHWVRQAPGKGLEWVGEISPSGGYTDYADSVKGRFTISADTSKNTAYLQMNSLRAEDTAVYYCARESRVSYEAAMDYWGQGTLVTVSS
VL: DIQMTQSPSSLSASVGDRVTITCRASQALGDSENGYADVAWYQQKPGKAPKLLIYEGSSLYSGVPSRFSGSGSGTDFTLTISSLQPEDFATYYCQQAAPSPYTFGQGTKVEIKR
On to B5, for which the “IC50 (read off the curve)” value in the experiment with HER3-ECD-Fc [3] is ~3 nM.

B6: D1.5-100 (mIgG2A) (bispecific antibody, V domains shown)
VH: EVQLVESGGGLVQPGGSLRLSCAASGFTFTGNWIHWVRQAPGKGLEWVGEISPSGGYTDYADSVKGRFTISADTSKNTAYLQMNSLRAEDTAVYYCARESRVSYEAAMDYWGQGTLVTVSS
VL: DIQMTQSPSSLSASVGDRVTITCRASQDLATDVAWYQQKPGKAPKLLIYSASFLYSGVPSRFSGSGSGTDFTLTISSLQPEDFATYYCQQSEPEPYTFGQGTKVEIKR
notes: also called anti-EGFR/HER3 antibody D1.5-100
Consider B6, for which, in the experiment with HER3-ECD-Fc [3], the “IC50 (read off the curve)” value is ~2 nM.

B7: D1.5-122 (phage-displayed Fab clone) (Fab, V domains shown)
VH: EVQLVESGGGLVQPGGSLRLSCAASGFTFTGNWIHWVRQAPGKGLEWVGEISPSGGYTDYADSVKGRFTISADTSKNTAYLQMNSLRAEDTAVYYCARESRVSYEAAMDYWGQGTLVTVSS
VL: DIQMTQSPSSLSASVGDRVTITCRASQNIASDVAWYQQKPGKAPKLLIYSASSLYSGVPSRFSGSGSGTDFTLTISSLQPEDFATYYCQQSDPEPYTFGQGTKVEIKR
notes: EGFR/HER3 clone
Take B7: the binding result is reported as “no binding” with HER4-ECD-Fc, “binds” in the experiment with hEGFR-ECD, “no binding” with BSA and “no binding” in the experiment with HER2-ECD.

B8: D1.5-115 (mIgG2A) (bispecific antibody, V domains shown)
VH: EVQLVESGGGLVQPGGSLRLSCAASGFTFTGNWIHWVRQAPGKGLEWVGEISPSGGYTDYADSVKGRFTISADTSKNTAYLQMNSLRAEDTAVYYCARESRVSYEAAMDYWGQGTLVTVSS
VL: DIQMTQSPSSLSASVGDRVTITCRASQEIFPDVAWYQQKPGKAPKLLIYSASSLYSGVPSRFSGSGSGTDFTLTISSLQPEDFATYYCQQAAPTPYTFGQGTKVEIKR
Turning to B8, the binding result with HER3-ECD-Fc [3] was “binds”.

B9: D1.5-121 (phage-displayed Fab clone) (Fab, V domains shown)
VH: EVQLVESGGGLVQPGGSLRLSCAASGFTFTGNWIHWVRQAPGKGLEWVGEISPSGGYTDYADSVKGRFTISADTSKNTAYLQMNSLRAEDTAVYYCARESRVSYEAAMDYWGQGTLVTVSS
VL: DIQMTQSPSSLSASVGDRVTITCRASQDVGSDLAWYQQKPGKAPKLLIYSASYLYSGVPSRFSGSGSGTDFTLTISSLQPEDFATYYCQQSDPEPYTFGQGTKVEIKR
notes: EGFR/HER3 clone
Turning to B9, the binding result in the experiment with HER3-ECD-Fc [2] was “binds”; with HER4-ECD-Fc, “no binding”; with hEGFR-ECD, “binds”; with BSA, “no binding”; with Erbitux, “no binding”; in the experiment with HER2-ECD it was “no binding”.

B10: D1.5-116 (phage-displayed Fab clone) (Fab, V domains shown)
VH: EVQLVESGGGLVQPGGSLRLSCAASGFTFTGNWIHWVRQAPGKGLEWVGEISPSGGYTDYADSVKGRFTISADTSKNTAYLQMNSLRAEDTAVYYCARESRVSYEAAMDYWGQGTLVTVSS
VL: DIQMTQSPSSLSASVGDRVTITCRASQAIASDVAWYQQKPGKAPKLLIYSASFLYSGVPSRFSGSGSGTDFTLTISSLQPEDFATYYCQQSEPEPYTFGQGTKVEIKR
notes: EGFR/HER3 clone
Regarding B10, the binding result with HER3-ECD-Fc [2] is given as “binds”; in the experiment with HER4-ECD-Fc it was “no binding”; with hEGFR-ECD it was “binds”; with BSA it was “no binding”; in the experiment with Erbitux, “no binding”; with HER2-ECD it was “no binding”.

B11: D1.5-121 (mIgG2A) (bispecific antibody, V domains shown)
VH: EVQLVESGGGLVQPGGSLRLSCAASGFTFTGNWIHWVRQAPGKGLEWVGEISPSGGYTDYADSVKGRFTISADTSKNTAYLQMNSLRAEDTAVYYCARESRVSYEAAMDYWGQGTLVTVSS
VL: DIQMTQSPSSLSASVGDRVTITCRASQDVGSDLAWYQQKPGKAPKLLIYSASYLYSGVPSRFSGSGSGTDFTLTISSLQPEDFATYYCQQSDPEPYTFGQGTKVEIKR
As to B11, in the experiment with HER3-ECD-Fc [3], the binding result is “binds”.

B12: D1.5-115 (phage-displayed Fab clone) (Fab, V domains shown)
VH: EVQLVESGGGLVQPGGSLRLSCAASGFTFTGNWIHWVRQAPGKGLEWVGEISPSGGYTDYADSVKGRFTISADTSKNTAYLQMNSLRAEDTAVYYCARESRVSYEAAMDYWGQGTLVTVSS
VL: DIQMTQSPSSLSASVGDRVTITCRASQEIFPDVAWYQQKPGKAPKLLIYSASSLYSGVPSRFSGSGSGTDFTLTISSLQPEDFATYYCQQAAPTPYTFGQGTKVEIKR
notes: EGFR/HER3 clone
For B12, the binding result is recorded as “binds” with HER3-ECD-Fc [2]; “no binding” with HER4-ECD-Fc; “binds” with hEGFR-ECD; “no binding” with BSA; “no binding” in the experiment with Erbitux; “no binding” in the experiment with HER2-ECD.

B13: D1.5-122 (mIgG2A) (bispecific antibody, V domains shown)
VH: EVQLVESGGGLVQPGGSLRLSCAASGFTFTGNWIHWVRQAPGKGLEWVGEISPSGGYTDYADSVKGRFTISADTSKNTAYLQMNSLRAEDTAVYYCARESRVSYEAAMDYWGQGTLVTVSS
VL: DIQMTQSPSSLSASVGDRVTITCRASQNIASDVAWYQQKPGKAPKLLIYSASSLYSGVPSRFSGSGSGTDFTLTISSLQPEDFATYYCQQSDPEPYTFGQGTKVEIKR
With B13, the “IC50 (read off the curve)” value in the experiment with HER3-ECD-Fc [3] is ~3 nM.

B14: D1.5-116 (mIgG2A) (bispecific antibody, V domains shown)
VH: EVQLVESGGGLVQPGGSLRLSCAASGFTFTGNWIHWVRQAPGKGLEWVGEISPSGGYTDYADSVKGRFTISADTSKNTAYLQMNSLRAEDTAVYYCARESRVSYEAAMDYWGQGTLVTVSS
VL: DIQMTQSPSSLSASVGDRVTITCRASQAIASDVAWYQQKPGKAPKLLIYSASFLYSGVPSRFSGSGSGTDFTLTISSLQPEDFATYYCQQSEPEPYTFGQGTKVEIKR
For the molecule B14, the binding result with HER3-ECD-Fc [3] is listed as “binds”.

The values above are taken from patent US20120121596A1 (published 2012).
